Reference: US20030162942A1 (DYAX, published 2003)
Where a chain is given by its changes, count along the chain named. Positions of bridges follow the written chain, without caps; N, C: chain ends. No end group written: not given here.

B1: 15-amino acid segment derived from affinity ligand isolate #109 (peptide)
peptide: RLCPKTDLGCMKDSD
modifications: disulfide 3-10; also: bound to a chromatographic support
notes: also called truncated 15-amino acid segment of the isolate #109; C3-C10 loop
B2: CMTI-I analogue 120, phage isolate (designed binder)
chain: RWCPKTSLECMKDSDCLAECVCLEHGYCGAGPSYIEGRIVGSA
notes: not shown: mature gene III protein of M13 phage
B3: CMTI-I analogue 228, phage isolate (designed binder)
chain: B2 chain with T6Y, S7T
notes: as for B2
B4: CMTI-I analogue 113, phage isolate (designed binder)
chain: B2 chain with W2L, S7D, E9G
notes: as for B2
B5: CMTI-I analogue 118, phage isolate (designed binder)
chain: B2 chain with K5R, S7V, L8R, E9R
notes: as for B2
B6: CMTI-I analogue 234, phage isolate (designed binder)
chain: B2 chain with K5R, T6S
notes: as for B2
B7: CMTI-I analogue 116, phage isolate (designed binder)
chain: B2 chain with P4I, K5R, S7D, E9G
notes: as for B2
B8: CMTI-I analogue 104, phage isolate (designed binder)
chain: B2 chain with P4S, K5T, T6Y, E9G
notes: as for B2
B9: CMTI-I analogue 221, phage isolate (designed binder)
chain: B2 chain with T6S, S7T, E9G
notes: as for B2
B10: CMTI-I analogue 114, phage isolate (designed binder)
chain: B2 chain with T6S, S7A, E9D, M11K
notes: as for B2
B11: CMTI-I analogue 115, phage isolate (designed binder)
chain: B2 chain with P4T, L8R
notes: as for B2
B12: CMTI-I analogue 238, phage isolate (designed binder)
chain: B2 chain with K5R, T6S, S7N
notes: as for B2
B13: CMTI-I analogue 222, phage isolate (designed binder)
chain: B2 chain with T6S, S7T, E9G
notes: as for B2
B14: CMTI-I analogue 235, phage isolate (designed binder)
chain: B2 chain with T6S, S7T, E9G
notes: as for B2
B15: CMTI-I analogue 117, phage isolate (designed binder)
chain: B2 chain with E9G
notes: as for B2
B16: CMTI-I analogue 111, phage isolate (designed binder)
chain: B2 chain with K5R, S7V, L8Q
notes: as for B2
B17: CMTI-I analogue 237, phage isolate (designed binder)
chain: B2 chain with K5R, T6S, S7N
notes: as for B2
B18: CMTI-I analogue 229, phage isolate (designed binder)
chain: B2 chain with T6Y, S7T
notes: as for B2
B19: CMTI-I analogue 233, phage isolate (designed binder)
chain: B2 chain with T6Y, S7T
notes: as for B2
B20: CMTI-I analogue 101, phage isolate (designed binder)
chain: B2 chain with E9G
notes: as for B2
B21: CMTI-I analogue 223, phage isolate (designed binder)
chain: B2 chain with T6Y, S7T
notes: as for B2
B22: CMTI-I analogue 109, phage isolate (designed binder)
chain: B2 chain with W2L, S7D, E9G
notes: as for B2
B23: CMTI-I analogue 224, phage isolate (designed binder)
chain: B2 chain with K5R, T6S
notes: as for B2
B24: CMTI-I analogue 108, phage isolate (designed binder)
chain: B2 chain with P4S, T6S
notes: as for B2
B25: CMTI-I analogue 102, phage isolate (designed binder)
chain: B2 chain with W2L, S7Y, E9G
notes: as for B2
B26: CMTI-I analogue 226, phage isolate (designed binder)
chain: B2 chain with K5R, T6S, S7N
notes: as for B2
B27: CMTI-I analogue 112, phage isolate (designed binder)
chain: B2 chain with K5T, T6A, S7P
notes: as for B2
B28: CMTI-I analogue 107, phage isolate (designed binder)
chain: B2 chain with W2L
notes: as for B2
B29: CMTI-I analogue 119, phage isolate (designed binder)
chain: B2 chain with S7H, L8K
notes: as for B2
B30: CMTI-I analogue 106, phage isolate (designed binder)
chain: B2 chain with P4S, K5T, T6Y, E9G
notes: as for B2
B31: CMTI-I analogue 105, phage isolate (designed binder)
chain: B2 chain with W2L
notes: as for B2
B32: CMTI-I analogue 236, phage isolate (designed binder)
chain: B2 chain with K5R, T6S
notes: as for B2
B33: CMTI-I analogue 103, phage isolate (designed binder)
chain: B2 chain with P4S, K5T, T6Y, E9G
notes: as for B2
B34: CMTI-I analogue 232, phage isolate (designed binder)
chain: B2 chain with E9G
notes: as for B2
B35: CMTI-I analogue 110, phage isolate (designed binder)
chain: B2 chain with T6S, L8M, E9G, M11K
notes: as for B2

Tests used:
[1] = molecular target: T1, recombinant human tissue-type plasminogen activator (tPA) (human, UniProt P00750 36-562); experiment: peptide bound to a chromatographic support
T1 construct: Immobilized on ReactiGel agarose beads for the phage work; Used in solution for the column tests

[2] = molecular target: human serum protease thrombin (human, UniProt P00734 328-622); experiment: phage binding to protein on beads (data not shown)
[3] = molecular target: human serum protease plasmin (human, UniProt P00747 97-810, limits assumed); experiment: phage binding to protein on beads (data not shown)
[4] = molecular target: T1, recombinant human tissue-type …; experiment: phage display selection on tPA agarose beads, binding at pH 7
Method: For this work, tPA was purchased from CalBiochem (#612200) and immobilized on ReactiGel™ agarose beads from Pierce Chemical Company by methods described in Markland et al. (1996). Approximately 200 μg of tPA were coupled to 200 μL of ReactiGel™ slurry.
The phage libraries described were screened for binding to tPA through four rounds. In the first round, the phage libraries were mixed in separate reactions with tPA agarose beads at pH 7 in phosphate-buffered saline (PBS). Bovine serum albumin (BSA) was added at 0.1% to reduce non-specific binding. Unbound phage were washed off at pH 7, and the bound phage eluted at pH 2 for the first screen only. […] Pool A consisted of the combined outputs from the CMTI and Lib#1 libraries, and Pool B consisted of the combined outputs of the Lib#3 and Lib#5 libraries. The binding of pooled libraries was performed at pH 7, however, the first elution to remove bound phage was carried out at pH 5 and a subsequent elution at pH 2 to elute phage that are released in the pH 5-pH 2 range. This was repeated twice more for a total of 4 rounds of selection.

[5] = molecular target: T1, recombinant human tissue-type …; experiment: phage isolate binding to and pH release from immobilized tPA

T1 sequence (P00750 36-562 limits assumed): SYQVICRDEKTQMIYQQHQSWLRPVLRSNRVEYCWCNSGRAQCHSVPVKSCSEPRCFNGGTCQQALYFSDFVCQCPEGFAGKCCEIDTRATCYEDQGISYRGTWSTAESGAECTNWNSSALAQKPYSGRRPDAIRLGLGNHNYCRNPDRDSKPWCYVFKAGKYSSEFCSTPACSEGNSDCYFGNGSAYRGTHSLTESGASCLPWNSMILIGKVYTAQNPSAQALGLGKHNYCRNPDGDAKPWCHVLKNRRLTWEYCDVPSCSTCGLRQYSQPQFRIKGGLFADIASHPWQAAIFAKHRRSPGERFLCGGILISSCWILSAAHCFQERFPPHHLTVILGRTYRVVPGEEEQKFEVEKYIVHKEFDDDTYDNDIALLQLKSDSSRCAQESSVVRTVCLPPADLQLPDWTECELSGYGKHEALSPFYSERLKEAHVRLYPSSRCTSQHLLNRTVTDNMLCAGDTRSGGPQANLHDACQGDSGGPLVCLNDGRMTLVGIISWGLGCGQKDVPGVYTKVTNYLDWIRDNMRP
human serum protease plasmin, sequence (P00747 97-810 limits assumed): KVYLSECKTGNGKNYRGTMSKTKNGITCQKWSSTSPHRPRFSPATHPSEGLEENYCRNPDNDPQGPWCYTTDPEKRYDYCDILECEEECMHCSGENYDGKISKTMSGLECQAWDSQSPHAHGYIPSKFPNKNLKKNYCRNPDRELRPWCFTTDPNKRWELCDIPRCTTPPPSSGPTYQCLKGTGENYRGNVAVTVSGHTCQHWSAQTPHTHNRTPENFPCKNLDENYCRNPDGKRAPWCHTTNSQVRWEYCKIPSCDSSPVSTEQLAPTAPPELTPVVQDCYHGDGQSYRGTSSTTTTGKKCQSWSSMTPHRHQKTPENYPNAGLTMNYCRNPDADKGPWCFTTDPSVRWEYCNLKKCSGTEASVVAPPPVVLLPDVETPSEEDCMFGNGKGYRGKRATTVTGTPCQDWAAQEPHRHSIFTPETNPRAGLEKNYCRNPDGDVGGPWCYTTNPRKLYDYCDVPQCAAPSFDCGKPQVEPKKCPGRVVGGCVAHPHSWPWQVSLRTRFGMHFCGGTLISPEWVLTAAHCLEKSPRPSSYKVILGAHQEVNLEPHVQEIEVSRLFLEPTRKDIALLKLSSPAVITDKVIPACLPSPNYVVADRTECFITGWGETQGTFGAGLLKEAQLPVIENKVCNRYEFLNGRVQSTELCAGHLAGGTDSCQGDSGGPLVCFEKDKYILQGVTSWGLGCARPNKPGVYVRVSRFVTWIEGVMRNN

Binder | binding result [1] | binding result [2] | binding result [3] | binding result [4] | binding result [5]
B1 | binds | – | – | – | –
B2 | – | no binding | no binding | binds | –
B3 | – | no binding | no binding | binds | –
B4 | – | no binding | no binding | binds | –
B5 | – | no binding | no binding | binds | –
B6 | – | no binding | no binding | binds | –
B7 | – | no binding | no binding | binds | –
B8 | – | no binding | no binding | binds | –
B9 | – | no binding | no binding | binds | –
B10 | – | no binding | no binding | binds | –
B11 | – | no binding | no binding | binds | –
B12 | – | no binding | no binding | binds | –
B13 | – | no binding | no binding | binds | –
B14 | – | no binding | no binding | binds | –
B15 | – | no binding | no binding | binds | –
B16 | – | no binding | no binding | binds | –
B17 | – | no binding | no binding | binds | –
B18 | – | no binding | no binding | binds | –

Binder | binding result [1] | binding result [2] | binding result [3] | binding result [4] | binding result [5]
B19 | – | no binding | no binding | binds | –
B20 | – | no binding | no binding | binds | –
B21 | – | no binding | no binding | binds | –
B22 | – | no binding | no binding | – | binds
B23 | – | no binding | no binding | binds | –
B24 | – | no binding | no binding | – | binds
B25 | – | no binding | no binding | binds | –
B26 | – | no binding | no binding | binds | –
B27 | – | no binding | no binding | binds | –
B28 | – | no binding | no binding | – | binds
B29 | – | no binding | no binding | binds | –
B30 | – | no binding | no binding | – | binds
B31 | – | no binding | no binding | – | binds
B32 | – | no binding | no binding | binds | –
B33 | – | no binding | no binding | binds | –
B34 | – | no binding | no binding | binds | –
B35 | – | no binding | no binding | binds | –
